Test results published in paper PMC4043945, “Biochemical and Molecular Characterization of Barley Plastidial ADP-Glucose Transporter (HvBT1)” (PLoS ONE, 2014).

Legend:
[1] = substrate: Nc1ncnc2c1ncn2[C@@H]1O[C@H](COP(=O)(O)OP(=O)(O)O)[C@@H](O)[C@H]1O; assay: radiolabelled uptake (Michaelis-Menten) in intact E. coli cells expressing HvBT1; also counter-exchange and reduction of ADP-Glc uptake; type: cell-based, Hordeum vulgare; conditions: counter-exchange substrate with ADP-glucose
[2] = substrate: Nc1ncnc2c1ncn2[C@@H]1O[C@H](COP(=O)(O)OP(=O)(O)O[C@H]2O[C@H](CO)[C@@H](O)[C@H](O)[C@H]2O)[C@@H](O)[C@H]1O; assay: radiolabelled uptake (Michaelis-Menten) in intact E. coli cells expressing HvBT1; empty-plasmid control subtracted; type: cell-based, Hordeum vulgare

B1: HvBT1 (barley plastidial ADP-glucose transporter) (Hordeum vulgare subsp. vulgare) (protein)
chain: MAAAMAATTMVTKNNGGSLAMDKKNWFFRPAPEVAFSWSSQPESRSLEFPRRALFASVGLSLSHDGKARPADDVAHQLAAAGDAGVQQAQKAKKAKKQQLGLRKVRVKIGNPHLRRLVSGAIAGAVSRTFVAPLETIRTHLMVGSSGADSMGGVFRWIMRTEGWPGLFRGNAVNVLRVAPSKAIEHFTYDTAKKYLTPEAGEPAKVPIPTPLVAGALAGVASTLCTYPMELVKTRLTIEKDVYDNLLHAFVKIVRDEGPGELYRGLAPSLIGVVPYAAANFYAYETLRGAYRRASGKEEVGNVPTLLIGSAAGAIASTATFPLEVARKQMQVGAVGGRQVYKNVLHAMYCILNKEGAAGLYRGLGPSCIKLMPAAGISFMCYEACKKILVDDKQDGEPQDQEETETGHTQGQAAPKSPNANGDRP
notes: codon-optimized ORF in pET16b with N-terminal His-tag, expressed in E. coli C43 (DE3)
In the case of B1, the Km [1] is reported as 334.7 µM and the Km [2] is reported as 614.5 µM.
